Assay results as given in US10105442B2, “Treatment of diabetes type 1 using GLP-1 and anti-IL-21” (Novo Nordisk A/S, priority 2014, dated 2018).

Tests used:
[1] = test system: recent-onset NOD mouse model; experiment: Determination of blood glucose effect in recent-onset NOD model (Assay V; Examples 1-3); assay type: in vivo
Protocol: Assay (V): Determination of Blood Glucose Effect in NOD Model
The purpose of this experiment was to determine the effect of administration of a GLP-1 agonist, such as the GLP-1 peptide, and/or an inhibitor of IL-21 function on blood glucose.
(§1) The recent-onset NOD mouse model was used. Mice were screened twice weekly and diabetes onset was defined as 2 consecutive blood glucose values of >250 mg/dL. Mice were enrolled into the experiment starting at 11 weeks of age and continued to be enrolled through 26 weeks of age. Dosing was weight based.
(§2) Blood glucose was measured by using a blood glucose meter (Bayer Contour USB) with the corresponding blood glucose strips. Mice with a blood glucose level>250 mg/dL on two consecutive days were considered diabetic. […] If the measurement was again >250 mg/dL, the animal was recorded as diabetic, enrolled into a treatment group, and was monitored further until it reached two consecutive readings of >600 mg/dL. At this time the mouse was sacrificed. Mice were also sacrificed before they reached a blood glucose value of >600 mg/dL if their overall condition was deteriorating, as determined by weight and/or overall appearance.
The mouse surrogate anti-IL-21 antibody was prepared by immunization of 6 to 8 week old BALB/c mice by s.c. injection with recombinant mouse IL-21 in a mixture of adjuvants. […] (SEQ ID No 13).
(§3) Anti-IL-21 was administered i.p. five times twice weekly starting immediately after inclusion of mice, i.e. from Day 0. […] Mouse surrogate anti-IL-21 is an mIgG1/kappa isotype with the VL amino acid sequence: […] […] […] (SEQ ID NO:26), and the VH amino acid sequence: […] […] […] (SEQ ID NO:27). […] Before use, anti-IL-21 was diluted in buffer (20 mM phosphate, 150 mM NaCl, pH=7.4). Aliquots of anti-IL-21 for injection into the animals were only thawed once.
Enrolment of mice of as described in Example 1 was continued adding 9, 8, 8 and 8 subjects to the treatment groups 1 to 4, respectively.

[2] = molecular target: murine IL-21 (Mus musculus, UniProt Q9ES17); experiment: Inhibition of IL-21 mediated STAT-3 phosphorylation in BaF3/KZ134/hIL-21R cells (Assay III); assay type: cell-based; conditions: selected antibody clone
Protocol: Assay (III): Inhibition of IL-21 Mediated STAT-3 Phosphorylation.
The ability of anti-IL-21 antibodies to neutralize IL-21 can be measured in a cell based assay using phosphorylation of STAT3 as read-out. BaF3 cells transfected with IL-21 receptor (IL-21R) are used and as IL-21 induces STAT3 phosphorylation reduction hereof by an anti-IL-21 antibody reflects the IL-21 neutralization activity.
Reduction in murine IL-21 activity in the presence of antibody containing supernatant was determined by measuring the level of STAT3-phosphorylation following ligand-receptor interaction in BaF3/KZ134/hIL-21R cells.
Relative neutralization activity was determined based on the percentage decrease in phosphorylated-STAT3 levels relative to control cells incubated with ligand alone. Baf3/KZ134/hIL-21R cells are plated in 96-well round-bottom tissue culture plates at a density of 50,000 cells/well. Murine IL-21 was pre-incubated with the supernatant from each tested well before transfer to the plated cells. The reactions were stopped and cells lyzed according to the manufacturer's instructions, (BIO-RAD Laboratories). Supernatants were collected, mixed with assay buffer and stored. […] The level of phosphorylated-STAT3 was determined on an array reader (BIO-PLEX, BIO-RAD Laboratories) according to the manufacturer's instructions. […]

[3] = test system: pancreatic tissue (islets, insulitis) of NOD mice; experiment: Histological examination of pancreatic tissue of NOD mice (H&E, CD8/CD4 and insulin staining); assay type: in vivo, mouse
Protocol: Histological examination: The histological analyses were performed on pancreatic tissue from a subset of mice from each group. Sections were stained with Hematoxylin and eosin (H&E) to assess insulitis and immunofluorescent staining with either CD8 and insulin or CD4 and insulin to assess insulitis and also characterize cell types within infiltrates.

[4] = test system: recent-onset NOD mouse model; experiment: Liraglutide in combination with Anti-IL-21 in the NOD model, confirmation study (Example 4); assay type: in vivo
Protocol: as §1, §2, §3

B1: Anti-IL-21: Mouse surrogate anti-IL-21 antibody, mIgG1/kappa isotype, VL SEQ ID NO:26 and VH SEQ ID NO:27, raised against recombinant mouse IL-21 (antibody, V domains shown)
VH: MNFGPSLIFLVLILKGVQCEVQLVESGGGLVKPGGSLKLSCAASGFTFNRYSMSWVRQSPEKRLEWVAEISVGGSYTQYVDIVTGRFTISRDNAKNTLYLEMSSLRSEDTAMYYCARLYYSGSGDSYYYAMDYWGQGTSVTVSS
VL: MDFQVQIFSFLLISASVILSRGQTVLIQSPAIMSASPGEKVTMTCSASSSVSYMHWYQQKSGTSPKRWIYDTSKLASGVPARFSGSGSGTSYSLTISSMEAEDAATYYCQQWNSNPPTFGGGTKLEMK
[1]; Example 1, NOD mice, 70 days
  Effect on hyperglycemia (in words): able to reverse hyperglycemia in some of the mice
[1]; Examples 1 and 2 compiled, FIG. 5A, 35 days period
  Mice in which diabetes was reversed (BGV lowered to below 250 mg/dL): half of the mice
[1]; Examples 1 and 2 compiled, FIGS. 3 and 4
  Number of mice surviving / remaining viable throughout the study period of 70 days (in words): substantial number
[1]; Table 1, Example 1 mice (N = 10 per group at onset), day 0 post diabetes onset
  Average blood glucose +/− SD: 351 ± 56 mg/dL
[1]; Table 1, Example 1 mice, day 4 post diabetes onset
  Average blood glucose +/− SD: 370 ± 73 mg/dL
[1]; Table 1, Example 1 mice, day 7 post diabetes onset
  Average blood glucose +/− SD: 404 ± 93 mg/dL
[1]; Table 1, Example 1 mice, day 11 post diabetes onset
  Average blood glucose +/− SD: 405 ± 160 mg/dL
[1]; Table 1, Example 1 mice, day 14 post diabetes onset
  Average blood glucose +/− SD: 379 +/− 139 (n = 8) mg/dL
[1]; Table 1, Example 1 mice, day 18 post diabetes onset
  Average blood glucose +/− SD: 351 +/− 178 (n = 7) mg/dL
[1]; Table 1, Example 1 mice, day 21 post diabetes onset
  Average blood glucose +/− SD: 285 +/− 151 (n = 6) mg/dL
[1]; Table 1, Example 1 mice, day 25 post diabetes onset
  Average blood glucose +/− SD: 279 +/− 169 (n = 6) mg/dL
[1]; Table 1, Example 1 mice, day 28 post diabetes onset
  Average blood glucose +/− SD: 204 +/− 95 (n = 5) mg/dL
[1]; Table 1, Example 1 mice, day 32 post diabetes onset
  Average blood glucose +/− SD: 221 +/− 101 (n = 5) mg/dL
[1]; Table 1, Example 1 mice, day 35 post diabetes onset
  Average blood glucose +/− SD: 205 +/− 116 (n = 5) mg/dL
[1]; Table 1, Example 1 mice, day 39 post diabetes onset (liraglutide withdrawn after day 35)
  Average blood glucose +/− SD: 224 +/− 140 (n = 5) mg/dL
[1]; Table 1, Example 1 mice, day 42 post diabetes onset (liraglutide withdrawn after day 35)
  Average blood glucose +/− SD: 215 +/− 112 (n = 5) mg/dL
[1]; Table 1, Example 1 mice, day 46 post diabetes onset (liraglutide withdrawn after day 35)
  Average blood glucose +/− SD: 201 +/− 122 (n = 5) mg/dL
[1]; Table 1, Example 1 mice, day 49 post diabetes onset (liraglutide withdrawn after day 35)
  Average blood glucose +/− SD: 217 +/− 140 (n = 5) mg/dL
[1]; Table 1, Example 1 mice, day 53 post diabetes onset (liraglutide withdrawn after day 35)
  Average blood glucose +/− SD: 229 +/− 186 (n = 5) mg/dL
[1]; Table 1, Example 1 mice, day 56 post diabetes onset (liraglutide withdrawn after day 35)
  Average blood glucose +/− SD: 128 +/− 10 (n = 4) mg/dL
[1]; Table 1, Example 1 mice, day 60 post diabetes onset (liraglutide withdrawn after day 35)
  Average blood glucose +/− SD: 174 +/− 59 (n = 4) mg/dL
[1]; Table 1, Example 1 mice, day 63 post diabetes onset (liraglutide withdrawn after day 35)
  Average blood glucose +/− SD: 156 +/− 30 (n = 4) mg/dL
[1]; Table 1, Example 1 mice, day 67 post diabetes onset (liraglutide withdrawn after day 35)
  Average blood glucose +/− SD: 138 +/− 16 (n = 4) mg/dL
[1]; Table 1, Example 1 mice, day 70 post diabetes onset (liraglutide withdrawn after day 35)
  Average blood glucose +/− SD: 153 +/− 30 (n = 4) mg/dL
[1]; Table 2, additional mice (Example 2), day 0 post diabetes onset
  Average blood glucose +/− SD: 353 +/− 59 (n = 8) mg/dL
[1]; Table 2, additional mice (Example 2), day 4 post diabetes onset
  Average blood glucose +/− SD: 326 +/− 104 (n = 8) mg/dL
[1]; Table 2, additional mice (Example 2), day 7 post diabetes onset
  Average blood glucose +/− SD: 375 +/− 103 (n = 8) mg/dL
[1]; Table 2, additional mice (Example 2), day 11 post diabetes onset
  Average blood glucose +/− SD: 361 +/− 125 (n = 8) mg/dL
[1]; Table 2, additional mice (Example 2), day 14 post diabetes onset
  Average blood glucose +/− SD: 338 +/− 153 (n = 8) mg/dL
[1]; Table 2, additional mice (Example 2), day 18 post diabetes onset
  Average blood glucose +/− SD: 336 +/− 183 (n = 8) mg/dL
[1]; Table 2, additional mice (Example 2), day 21 post diabetes onset
  Average blood glucose +/− SD: 248 +/− 153 (n = 6) mg/dL
[1]; Table 2, additional mice (Example 2), day 28 post diabetes onset
  Average blood glucose +/− SD: 219 +/− 162 (n = 6) mg/dL
[1]; Table 2, additional mice (Example 2), day 35 post diabetes onset
  Average blood glucose +/− SD: 147 +/− 15 (n = 5) mg/dL
[1]; Table 2, additional mice (Example 2), day 42 post diabetes onset (liraglutide withdrawn after day 35)
  Average blood glucose +/− SD: 264 +/− 121 (n = 2^#) mg/dL
[1]; Table 2, additional mice (Example 2), day 49 post diabetes onset (liraglutide withdrawn after day 35)
  Average blood glucose +/− SD: 118 +/− 17 (n = 2) mg/dL
[1]; Table 2, additional mice (Example 2), day 56 post diabetes onset (liraglutide withdrawn after day 35)
  Average blood glucose +/− SD: 286 +/− 107 (n = 2) mg/dL
[1]; Table 2, additional mice (Example 2), day 63 post diabetes onset (liraglutide withdrawn after day 35)
  Average blood glucose +/− SD: 314 +/− 157 (n = 2) mg/dL
[1]; Table 2, additional mice (Example 2), day 70 post diabetes onset (liraglutide withdrawn after day 35)
  Average blood glucose +/− SD: 400 +/− 108 (n = 2) mg/dL
[1]; Table 3, all mice (Examples 1 and 2 compiled), day 0 post diabetes onset
  Average blood glucose +/− SD: 352 +/− 57 (n = 18) mg/dL
[1]; Table 3, all mice (Examples 1 and 2 compiled), day 4 post diabetes onset
  Average blood glucose +/− SD: 351 +/− 91 (n = 18) mg/dL
[1]; Table 3, all mice (Examples 1 and 2 compiled), day 7 post diabetes onset
  Average blood glucose +/− SD: 391 +/− 99 (n = 18) mg/dL
[1]; Table 3, all mice (Examples 1 and 2 compiled), day 11 post diabetes onset
  Average blood glucose +/− SD: 385 +/− 147 (n = 18) mg/dL
[1]; Table 3, all mice (Examples 1 and 2 compiled), day 14 post diabetes onset
  Average blood glucose +/− SD: 358 +/− 148 (n = 16) mg/dL
[1]; Table 3, all mice (Examples 1 and 2 compiled), day 18 post diabetes onset
  Average blood glucose +/− SD: 343 +/− 181 (n = 15) mg/dL
[1]; Table 3, all mice (Examples 1 and 2 compiled), day 21 post diabetes onset
  Average blood glucose +/− SD: 267 +/− 153 (n = 12) mg/dL
[1]; Table 3, all mice (Examples 1 and 2 compiled), day 28 post diabetes onset
  Average blood glucose +/− SD: 212 +/− 136 (n = 11) mg/dL
[1]; Table 3, all mice (Examples 1 and 2 compiled), day 35 post diabetes onset
  Average blood glucose +/− SD: 176 +/− 88 (n = 10) mg/dL
[1]; Table 3, all mice (Examples 1 and 2 compiled), day 42 post diabetes onset (liraglutide withdrawn after day 35)
  Average blood glucose +/− SD: 229 +/− 117 (n = 7^#) mg/dL
[1]; Table 3, all mice (Examples 1 and 2 compiled), day 49 post diabetes onset (liraglutide withdrawn after day 35)
  Average blood glucose +/− SD: 189 +/− 127 (n = 7) mg/dL
[1]; Table 3, all mice (Examples 1 and 2 compiled), day 56 post diabetes onset (liraglutide withdrawn after day 35)
  Average blood glucose +/− SD: 181 +/− 97 (n = 6) mg/dL
[1]; Table 3, all mice (Examples 1 and 2 compiled), day 63 post diabetes onset (liraglutide withdrawn after day 35)
  Average blood glucose +/− SD: 209 +/− 119 (n = 6) mg/dL
[1]; Table 3, all mice (Examples 1 and 2 compiled), day 70 post diabetes onset (liraglutide withdrawn after day 35)
  Average blood glucose +/− SD: 236 +/− 134 (n = 6) mg/dL
[2]
  Neutralizing activity in STAT3 phosphorylation assay (in words): strong neutralizing activity
[3]; subset of mice from each group
  Cellular infiltration of pancreas (in words): decreased extent of infiltration
[3]; surviving mice
  Insulitis (in words): reduced
[4]; Example 4
  Survival through 70 days post onset of hyperglycaemia: 75%
[4]; Example 4, first 35 days post disease onset
  Mice with established hyperglycaemia cured / reversed: 75%
